Data from US10611798B2, “PAR1 and PAR2 c-tail peptides and peptide mimetics” (Hadasit Medical Research Services and Development Ltd., priority 2010, dated 2020).

Key:
[1] = molecular target: T1, PAR1 binding to GST-PH-Etk/Bmx (Homo sapiens, UniProt P51813); assay: Peptide competition for binding of PAR1 cell lysates to GST-PH-Etk/Bmx; conditions: 1-1000 nM applied peptide; Western blot, FIG. 7B/7C
T1 construct: made in house; host or cells: Escherichia coli (general statement on GST fusion proteins)
T1 sequence (P51813 4-111 limits assumed): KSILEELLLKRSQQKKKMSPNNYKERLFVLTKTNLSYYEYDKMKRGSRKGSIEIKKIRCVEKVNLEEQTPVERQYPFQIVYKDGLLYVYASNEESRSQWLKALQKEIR
Protocol: GST fusion protein columns. Fusion proteins were purified from transformed Escherichia coli bacteria that had been stimulated with isopropyl-β-D-thio-galactopyranoside (IPTG) at a concentration of […]. Bacteria were lysed according to published procedures, and then immobilized on glutathione Sepharose beads (Pharmacia). Briefly, MDA-MB-435 cell lysates were applied to GST-PAR1 C-tail or GST control columns. After 2 h binding periods to the designated protein/s cell lysates to the columns, a washing step was performed. The washes (×3) were carried out using a “wash buffer” including: 100 mM NaCL, 20 mM EDTA, 10 mM Tris, pH 8.0 and 1% Triton ×100. This step was performed in order to wash out all non-specific proteins, leaving the GST-PAR1-C-tail column firmly bound to targeted cell lysate proteins. Next, elution of bound proteins was performed via the addition of gel “sample buffer” and appropriate boiling. The samples were run electrophoretically on SDS-PAGE gels, followed by immunoblotting with the indicated antibodies and ECL detection.
GST-PH-Etk/Bmx. The PH domain in Etk/Bmx was bound to GST column as previously described (Chen R, et al. (2001) Nat Cell Biol. 3: 439-444). Purification of PAR1 C-tail fragments. PAR1 C-tail fragments were generated using a “thrombin cleavage capture kit” (Novagen, Madison, Wis.; Cat no. 69022-3). The enzyme used for the cleavage was biotinylated human thrombin. Briefly, the cleavage was performed according to the manufacturer instructions. Biotinylated thrombin was removed from the cleavage reaction using streptavidin agarose beads, and the cleaved peptides (e.g., wt PAR1-C-tail and Y38 1A C-tail) were isolated and loaded on a GST-Etk-PH column. After incubation for 4 h the purified fragments were applied onto the GST-PH-Etk/Bmx column and detected following gel separation and western blotting analysis using anti-PAR1 antibodies (ATAP, Santa Cruz, Calif. ).
Identification of PAR1-Etk/Bmx binding region: functional consequences. […]

[2] = molecular target: T2, association between Etk/Bmx and PAR1-C-tail (Homo sapiens, UniProt P51813); assay: Competition experiment: co-immunoprecipitation of HA-PAR1 and T7-tagged Etk/Bmx in MCF7 clones; format: cell-based; conditions: 20 minutes after activation by thrombin or TFLLRN, IP anti-HA, blot anti-T7, FIG. 22
T2 construct: expressed in transfected cells
T2 sequence (P51813 1-675): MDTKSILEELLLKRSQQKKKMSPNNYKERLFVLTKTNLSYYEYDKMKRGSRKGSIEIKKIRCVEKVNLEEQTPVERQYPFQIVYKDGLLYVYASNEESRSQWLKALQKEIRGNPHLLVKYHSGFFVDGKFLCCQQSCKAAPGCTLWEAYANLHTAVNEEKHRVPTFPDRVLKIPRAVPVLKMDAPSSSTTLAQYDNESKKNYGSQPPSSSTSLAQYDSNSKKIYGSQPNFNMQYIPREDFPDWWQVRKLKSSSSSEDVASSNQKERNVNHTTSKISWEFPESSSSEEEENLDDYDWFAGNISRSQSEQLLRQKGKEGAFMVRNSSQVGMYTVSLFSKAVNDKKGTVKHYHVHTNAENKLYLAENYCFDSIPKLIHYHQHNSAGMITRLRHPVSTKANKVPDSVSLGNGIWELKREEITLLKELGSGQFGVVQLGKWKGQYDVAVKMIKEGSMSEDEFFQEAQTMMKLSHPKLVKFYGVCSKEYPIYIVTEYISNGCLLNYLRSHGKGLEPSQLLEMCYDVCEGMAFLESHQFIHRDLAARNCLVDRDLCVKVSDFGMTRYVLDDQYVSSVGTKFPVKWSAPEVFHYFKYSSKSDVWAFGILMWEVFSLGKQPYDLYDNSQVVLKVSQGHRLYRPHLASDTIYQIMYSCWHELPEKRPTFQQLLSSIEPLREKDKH
Protocol: Western blot and immunoprecipitation analysis: Cells were activated with agonist peptide TFLLRNPNDK (SEQ ID NO: 35) for the indicated periods of time and solubilized in lysis buffer containing 10 mM Tris-HCl, pH 7.4, 150 mM NaCl, 1 mM EDTA, 1% TritonX-100, and protease inhibitors ([…] aprotinin, 1 mM phenylmethylsulfonylfluoride, and […] leupeptin) at 4° C. for 30 min. The cell lysates were subjected to centrifugation at 12,000 rpm at 4° C. for 20 min. We used 400 μg of the supernatants with anti-PAR1 (ATAP, Santa Cruz, Calif. 1 μg), anti-HA (anti-HA sc-7392; Santa Cruz, Calif.), anti-Shc or Etk/Bmx antibodies (10 μg/ml). After overnight incubation, Protein A-Sepharose beads (Amersham Pharmacia Biotech, Buckinghamshire, UK) were added to the suspension (50 μl ), which was rotated at 4° C. for 1 h. The immunocomplexes were eluted and run electrophoretically on a 10% SDS-PAGE gel, followed by transfer to an Immobilon-P membrane (Millipore). Membranes were blocked and probed with 1 μg/ml amounts of the appropriate antibodies as follows: anti-PAR1 thrombin receptor mAb, (ATAP, from Santa Cruz, 1:1000); anti-Shc (BD, 1:2000); anti-Bmx (Transduction Laboratories, 1:1000) or anti-PY (Upstate 4G10, 1:2500), suspended in 3% BSA in 10 mM Tris-HCl, pH 7.5, 100 mM NaCl, and 0.5% Tween-20. […] Immunoreactive bands were detected by enhanced chemiluminescence (ECL). […]

MDA-MB-435 cells = assay: Wound assay (cell migration) in MDA-MB-435 cell monolayer; format: cell-based, human; conditions: MDA-MB-435 monolayer, 24 h, PAR1 activation; compared to control untreated cells; FIG. 9D
Protocol: In a parallel experiment, a wound assay for determining the rate of cell migration, showing the ability of the cells to fill in gaps in an MDA-MB-435 cell monolayer, was performed. MDA-MB-435 cell monolayer expressing endogenous Etk/Bmx was scratched to introduce an equal gap-area under the following conditions: control untreated cells, TFLLRNPNDK-activated or SiRNA-Etk/Bmx and TFLLRNPNDK-activated. […] Similar inhibition was obtained in the presence of the PAR1 antagonist, SCH 79797 (FIG. 9D, bottom panel), pointing to the important role of both PAR1 and Etk/Bmx in wound closure/migration of PAR1-activated MDA-MB-435 cells.

## peptide 5: peptide representing PAR1 C-tail 387-400 (CCKESSDPSSYNSS; UniProt P25116 387-400, looked up, fragment)
[1]
  competition for the binding of PAR1 cell lysates to GST-PH-Etk/Bmx: did not compete

## SSECQRYVYSIL (listed as Homo sapiens) [NH2-SSECQRYVYSIL-COOH]
[2]
  association between Etk/Bmx and PAR1-C-tail in the presence of the peptide: No binding is observed

## TFLLRNPNDK (listed as Homo sapiens)
MDA-MB-435 cells
  closure of the wound / migration: Rapid closure of the wound

## residues 393-412: peptide representing PAR1 C-tail residues 393-412 (DPSSYNSSGQLMASKMDTCS; UniProt P25116 393-412, looked up, fragment)
[1]
  competition for the binding of PAR1 cell lysates to GST-PH-Etk/Bmx: did not compete

## peptide 4: 18-amino-acid peptide encompassing residues 375-392 of PAR1 C-tail (SSECQRYVYSILCCKESS; UniProt P25116 375-392, looked up, fragment)
[1]
  competition for the binding of PAR1 cell lysates to GST-PH-Etk/Bmx: dose-dependent inhibition

## CC(C)c1ccc(Cn2ccc3c4c(N)nc(NC5CC5)nc4ccc32)cc1 [SCH79797]
MDA-MB-435 cells
  closure of the wound / migration: attenuated wound closure
